Laboratory results from article PMC3901689, “Leptin-Induced Endothelium-Dependent Vasorelaxation of Peripheral Arteries in Lean and Obese Rats: Role of Nitric Oxide and Hydrogen Sulfide” (PLoS ONE, 2014).

T1: human leptin binding domain (hLBD) consisting of the amino acids 428-635 of human leptin receptor (human, UniProt P48357 428-635)
T1 chain: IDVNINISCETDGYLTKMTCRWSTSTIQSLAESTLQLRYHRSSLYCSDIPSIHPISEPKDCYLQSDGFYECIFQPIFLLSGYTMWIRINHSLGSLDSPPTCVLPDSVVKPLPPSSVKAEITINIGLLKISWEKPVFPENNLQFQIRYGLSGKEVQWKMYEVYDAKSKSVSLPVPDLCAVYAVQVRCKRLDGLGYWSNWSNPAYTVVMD

T2: human leptin binding domain (hLBD) consisting of the amino acids 428-635 of human leptin receptor (human, UniProt P48357 428-635)
T2 sequence (looked up): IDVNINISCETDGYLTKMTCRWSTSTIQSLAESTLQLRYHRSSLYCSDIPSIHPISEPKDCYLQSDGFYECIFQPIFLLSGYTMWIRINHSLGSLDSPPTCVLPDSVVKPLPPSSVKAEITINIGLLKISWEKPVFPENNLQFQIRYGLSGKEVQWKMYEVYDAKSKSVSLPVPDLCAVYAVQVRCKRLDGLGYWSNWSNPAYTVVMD


What was measured:
[1] = target: T1, human leptin binding domain (hLBD) …; experiment: ELISA; competition with biotinylated human leptin; given as EC50
[2] = target: T2, human leptin binding domain (hLBD) …; experiment: competitive non-radioactive receptor-binding assay; hLBD immobilized; biotinylated human leptin bound in the presence of the indicated concentrations of SRLA or PEG-SRLA; triplicates; settings: both partners purified

IC50 [1] [nM] | binding result [2] | Binder
0.977 | binds | super active rat leptin antagonist (D23L/L39A/D40A/F41A mutant), non-pegylated (ligand, extra Ala left at the N-terminus from an extra Met-Ala (Met is cleaved by the bacteria); leptin, rat; about 16 kDa by SDS-PAGE; also called SRLA) AVPIHKVQDDTKTLIKTIVTRINLISHTQSVSARQRVTGAAAIPGLHPILSLSKMDQTLAVYQQILTSLPSQNVLQIAHDLENLRDLLHLLAFSKSCSLPQTRGLQKPESLDGVLEASLYSTEVVALSRLQGSLQDILQQLDLSPEC
9.31 | binds | mono-pegylated super active rat leptin antagonist (D23L/L39A/D40A/F41A mutant) (ligand, mono-pegylated (90%, with 10% double pegylated product); site and PEG size not stated, extra Ala left at the N-terminus from an extra Met-Ala (Met is cleaved by the bacteria); leptin, rat; same chain as m1; also called PEG-SRLA; pegylated superactive rat leptin receptor antagonist) AVPIHKVQDDTKTLIKTIVTRINLISHTQSVSARQRVTGAAAIPGLHPILSLSKMDQTLAVYQQILTSLPSQNVLQIAHDLENLRDLLHLLAFSKSCSLPQTRGLQKPESLDGVLEASLYSTEVVALSRLQGSLQDILQQLDLSPEC
